{"source": "patent US6475744", "about": "(GENERAL HOSPITAL CORPORATION A MASSACHUSETTS, dated 2002)", "binders": {"B1": {"name": "mCRY1-HA (other, mouse, UniProt P97784 1-606, looked up, not shown: small tags and cut ends)", "chain": "MGVNAVHWFRKGLRLHDNPALKECIQGADTIRCVYILDPWFAGSSNVGINRWRFLLQCLEDLDANLRKLNSRLFVIRGQPADVFPRLFKEWNITKLSIEYDSEPFGKERDAAIKKLATEAGVEVIVRISHTLYDLDKIIELNGGQPPLTYKRFQTLVSKMEPLEMPADTITSDVIGKCMTPLSDDHDEKYGVPSLEELGFDTDGLSSAVWPGGETEALTRLERHLERKAWVANFERPRMNANSLLASPTGLSPYLRFGCLSCRLFYFKLTDLYKKVKKNSSPPLSLYGQLLWREFFYTAATNNPRFDKMEGNPICVQIPWDKNPEALAKWAEGRTGFPWIDAIMTQLRQEGWIHHLARHAVACFLTRGDLWISWEEGMKVFEELLLDADWSINAGSWMWLSCSSFFQQFFHCYCPVGFGRRTDPNGDYIRRYLPVLRGFPAKYIYDPWNAPEGIQKVAKCLIGVNYPKPMVNHAEASRLNIERMKQIYQQLSRYRGLGLLASVPSNSNGNGGLMGYAPGENVPSCSSSGNGGLMGYAPGENVPSCSGGNCSQGSGILHYAHGDSQQTHSLKQGRSSAGTGLSSGKRPSQEEDAQSVGPKVQRQSSN"}}, "target": "T1, βgalactosidase (UniProt P00722 1-1024 = β-galactosidase, limits assumed)", "T1 construct": "Construct not described; also called specificity control", "T1 sequence (P00722 whole entry)": "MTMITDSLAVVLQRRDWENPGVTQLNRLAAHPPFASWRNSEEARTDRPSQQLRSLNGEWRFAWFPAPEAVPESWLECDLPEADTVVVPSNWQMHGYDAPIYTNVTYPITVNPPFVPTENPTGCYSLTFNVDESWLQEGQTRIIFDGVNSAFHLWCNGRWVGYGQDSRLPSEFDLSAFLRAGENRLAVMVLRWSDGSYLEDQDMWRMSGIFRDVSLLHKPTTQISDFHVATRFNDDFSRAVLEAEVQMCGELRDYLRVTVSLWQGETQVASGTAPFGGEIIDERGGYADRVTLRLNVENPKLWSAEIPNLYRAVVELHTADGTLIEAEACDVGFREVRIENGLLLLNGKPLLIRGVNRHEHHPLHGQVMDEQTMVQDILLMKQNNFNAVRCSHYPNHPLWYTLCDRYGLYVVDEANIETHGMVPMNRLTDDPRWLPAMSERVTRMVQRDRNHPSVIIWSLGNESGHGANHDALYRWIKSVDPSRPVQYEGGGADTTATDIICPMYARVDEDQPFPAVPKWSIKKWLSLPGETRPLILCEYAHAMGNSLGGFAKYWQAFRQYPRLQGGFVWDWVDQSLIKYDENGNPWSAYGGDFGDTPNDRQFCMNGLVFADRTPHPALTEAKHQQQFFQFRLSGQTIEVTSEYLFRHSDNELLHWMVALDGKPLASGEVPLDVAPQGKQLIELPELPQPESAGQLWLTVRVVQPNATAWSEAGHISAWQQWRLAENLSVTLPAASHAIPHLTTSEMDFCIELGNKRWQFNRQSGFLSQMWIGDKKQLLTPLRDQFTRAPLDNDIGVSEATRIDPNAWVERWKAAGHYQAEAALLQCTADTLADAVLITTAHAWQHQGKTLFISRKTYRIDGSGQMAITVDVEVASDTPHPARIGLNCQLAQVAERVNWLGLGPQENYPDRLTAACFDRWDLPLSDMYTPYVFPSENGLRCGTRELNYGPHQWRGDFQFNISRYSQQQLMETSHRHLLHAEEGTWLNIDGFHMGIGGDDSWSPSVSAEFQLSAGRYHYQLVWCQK", "assay": "co-immunoprecipitation from co-transfected COS7 cells, anti-HA IP", "data": [{"binder": "B1", "values": [{"measurement": "binding result", "value": "no binding"}]}]}
